Columns and labels:
[1] = tested on: HEK293A cells; test: Fluorescence imaging of FPs in HEK293A cells with chromophore addition or HO-1 expression; type: cell-based; settings: smURFP/TDsmURFP in HEK293A cells
Description: smURFP codons were optimized for human cell expression, and the gene was created by GenScript. smURFP, TDsmURFP (created from mammalian-optimized smURFP), IFP1.4 (mammalian-optimized form^35), IFP2.0 (mammalian-optimized form^46), and iRFP713 (mammalian-optimized form^36) were PCR amplified using Phusion High-Fidelity DNA Polymerase (NEB) with primers containing 5′ HindIII and 3′ XhoI restriction enzyme sites. HindIII-HF and XhoI (NEB)-digested PCR fragments were gel purified (Zymoclean Gel DNA Recovery Kit) and were ligated (T4 DNA Ligase, Life Technologies) into a similarly digested pCDNA3-IRES-eGFP vector (bicistronic to express two FPs in the same cell). For creation of HO-1-expressing mammalian vec-tors, the Synechocystis HO-1 was used, and the codons were not optimized for mammalian expression. Synechocystis HO-1 was directly amplified from the pBAD vector using primers containing 5′ BsiWI and 3′ XbaI restriction enzyme sites. pCDNA3 smURFP, TDsmURFP, IFP1.4, IFP2.0, or iRFP713-IRES-eGFP vectors were digested with BsiWI and XbaI (NEB), dephosphorylated (SAP, Roche), gel purified (Zymoclean Gel DNA Recovery Kit), and ligated (T4 DNA Ligase, Life Technologies) with similarly digested, purified HO-1 PCR fragment. For creation of smURFP fusions, smURFP was PCR amplified using Phusion High-Fidelity DNA Polymerase (NEB) with primers containing 5′ AgeI and 3′ NotI restriction enzyme sites for N-terminal fusions or with primers containing 5′ AgeI and 3′ BspEI restriction enzyme sites for C-terminal fusions. mGeos2-VEL-ManII-N-10 (Addgene 57551) and Dronpa-PDHA1-N-10 (Addgene 57292) vectors were digested with AgeI and NotI (NEB) and mCherry-αTubulin-C-18 (Addgene 55148) and tdTomato-LaminB1-10 (Addgene 58107) were digested with AgeI and BspEI, dephosphorylated (SAP, Roche), gel purified (Zymoclean Gel DNA Recovery Kit), and ligated (T4 DNA Ligase, Life Technologies) with similarly digested, purified smURFP PCR fragment. HEK293A (Invitrogen, Life Technologies), HT1080 (ATCC), and PC3 (ATCC) cells were grown in Dulbecco's Modified Eagle's medium (DMEM, Corning), supplemented with 10% FBS (Atlanta Biologicals)+1×penicillin—streptomycin (Fisher Scientific), which is referred to as growth media, on poly-D-lysine-coated glass-bottom culture dishes (MatTek, No. P35G-0-14-C). The HEK cell line is listed in the ICLAC and NCBI biosample databases and is commonly misidentified as the HeLa cell line. For expression of exogenous fluorescent proteins, there is no problem if there is a contaminating cell line because no endogenous biology or therapeutic results are being determined. HEK293A cells were purchased from Invitrogen (Life Technologies), and all experiments are derived from the same expanded frozen stock without cell line authentication or mycoplasma detection. Cells were transfected using 2 μg of circular DNA+5 μl Lipofectamine 2000 (Life Technologies) in 2 ml Opti-MEM (Life Technologies) for 4-5 h, transfection media was discarded, and prewarmed growth media was added. Chromophores (5 mM in DMSO) were added at indicated concentrations to growth media, warmed for 10-15 min at 37° C., and added to cells. For multiple timepoints, incubations were staggered to maintain equivalent incubation. Prior to imaging, cells were washed 1×2 ml growth media, 2×2 ml imaging solution, and imaged in 2 ml imaging solution. Fluorescence imaging was performed on a Zeiss Axiovert 200M inverted microscope controlled by SlideBook software. FPs were imaged with the following settings: eGFP, EX/EM=495(10)/535(25) nm, tdTomato EX/EM=540(25)/595(50) nm; mCherry and mCardinal, EX/EM=580(20)/653(95) nm; smURFP and TDsmURFP, EX/EX=628(40)/680(30) nm; and IFP1.4, IFP2.0, and iRFP713, EX/EM=665(45)/725(50) nm. […]

[2] = FP purification and fluorescence characterization in vitro (spectra, extinction coefficient, quantum yield); type: physicochemical; settings: for Molecular Brightnes Relative to smURFP / Emission Maximum / Excitation Maximum / Extinction Coefficient / Quantum Yield: Table 4; for Emission Maximum / Excitation Maximum / Extinction Coefficient / Quantum Yield: evolved APCα FPs
Protocol: FP genes were expressed on a pBAD vector (Life Technologies) with a polyhistidine tag on the C terminus, cells were lysed with B-PER (Thermo Scientific), and purified using Ni-NTA (Qiagen) puri-fication. PCB (HO-1+PcyA) and BV (HO-1) incorporation in Escherichia coli was performed simultaneously during constitu-tively active FP expression. Extinction coefficient was determined by PCB or BV absorbance as described35,36 (Table 3, smURFP+BV and TDsmURFP+BV, and Table 2) or calculated for the apoproteins by determining the protein concentration by the BCA protein assay (Pierce), and a specific chromo-phore concentration was added (specified in the Purification of FP lacking chromophore and in vitro chromophore incorporation section) to get 1 and 2 chromophore species (Table 5, not including (Escherichia coli)). When FP chromophore (PCB or BV) was expressed in Escherichia coli, the PCB and BV Q band had absorbance that overlapped with detection of BCA or Bradford assay of 562 nm and 592 nm, respectively. We used the previously published protocols35,36, where there was no change of the BV absorbance at 390 nm when free in solution or attached to the FP. smURFP+BV denaturation with 1 M urea caused no change in the BV absorbance at 390 nm, but the Q band was reduced ˜20-fold. Therefore, the extinction coefficient of BV at 390 nm was used to calculate the concentration of holoprotein (FP+PCB or BV) concentration.
EX and EM spectra were obtained using SPEX Fluorolog fluorometer (Horiba). Absorbance spectra were obtained using UV-VIS Spectrophotometer Cary Eclipse (Varian) or UV-2700 (Shimadzu). Quantum yield was determined relative to Cy5. Incorporation rates of BV on 0.5 μM smURFP was performed by addition of smURFP to PBS alone or with 20% fetal bovine serum (FBS) and mixed by pipetting in a quartz cuvette. Chromophore was added last, mixed by pipetting, and fluorescence was recorded using SPEX Fluorolog fluorometer (Horiba). Photobleaching was characterized on bubbles of purified FP or Cy5 within mineral oil using light from a 150 W xenon arc lamp with 100% light through EX/EM=628(40)/680(30) nm for smURFP, TDsmURFP, and Cy5 or EX/EM=665 (45)/725 (50) nm for IFP 1.4 focused with a 40×, 1.2 numerical aperture C-Apochromat oil-immersion lens on a Zeiss Axiovert 200M inverted microscope. Photobleaching times were normalized to reflect an initial illumination intensity producing 1,000 photons per fluorescent molecule per second as previously described^37.
HO-1 was removed by digesting the pBAD vector (Life Technology) with MscI and PmeI (NEB). smURFP and TDsmURFP were expressed and purified as described above. No chromophore was present on smURFP and TDsmURFP (confirmed by UV, fluorescence imaging, and MS). For predominant fluorescent species+2 chromophores, a ten-fold excess of chromophore was added to smURFP and TDsmURFP. For predominant fluorescent species+1 chromophore, a quarter concentration of chromophore was added to smURFP and TDsmURFP. Chromophore was added in PBS+10% FBS at 37° C. overnight. smURFP+chromophore and TDsmURFP+chromophore were purified using NiNTA (Qiagen) to remove excess or noncovalently attached chromophore.

[3] = tested on: Escherichia coli; test: Fluorescence of FPs expressed in Escherichia coli; type: cell-based
Protocol: TeAPCα gene (codons optimized for Escherichia coli) was made by GenScript. Mutations were placed by random mutagenesis using GeneMorphII Random Mutagenesis Kit (Agilent Technologies). Screens for mutants that fluoresce with PCB or BV were performed by subcloning into a pBAD vector (Life Technologies) that expressed cyanobacteria Synechocystis HO-1 and Synechocystis PcyA genes for PCB production and Synechocystis HO-1 only for BV production, as previously described^34. Libraries were expressed in TOP 10 Electrocompetent Escherichia coli cells (Life Technologies) with addition of 0.2% arabinose to LB agar plates (FPs were constitutively expressed in Escherichia coli). Fluorescence was imaged on plates using a BioSpectrum AC Imaging System (UVP) with EX/EM=628(40)/690(50) nm for FPs+PCB, EX/EM=685(40)/710LP nm for rounds 4 and 5 FPs+BV, and EX/EM=650(13)/690(50) nm for Cy5-like FPs+BV (rounds 6-12). At round 6, 5-10 of the brightest colonies on each plate were combined in LB+0.2% arabinose, grown ˜18 h, mixture of plasmid DNA was purified, and TOP10 cells were transformed and plated on LB agar plates+0.2% arabinose. Fluorescence was screened on plates (as described above), 10-20 of the brightest colonies were screened in liquid culture fluorescence (FIG. 7a-e), plasmid DNA was purified, and DNA was sequenced. The plasmid DNA of 2-3 of the brightest FPs was chosen for mutagenesis for the subsequent round. When choosing DNA for subsequent mutagenesis rounds, genes with increased and/or novel silent DNA mutations were chosen over other DNA that had the same DNA and/or protein sequence of the previous round. Site-specific mutagenesis was performed using QuikChange Lightning Mutagenesis Kit (Agilent Technologies) to create smURFP (C4S mutation) and smURFP C52S.

Molecule	chromophore concentration reaching saturation of fluorescence [1]	chromophore concentration required for fluorescence similar to 2.5 μM BVMe2 [1]	extinction coefficient (EC) [2]	quantum yield (QY) [2]	red-shift of excitation and emission relative to R3-2+PCB [2]	Molecular Brightnes Relative to smURFP [2]	Emission Maximum [2]	Excitation Maximum [2]	Extinction Coefficient [2]	Quantum Yield [2]	fluorescence when expressed in E. coli (qualitative) [3]	fold brighter than R1+PCB ([3]; expressed in E. coli)
C=CC1=C(C)/C(=C/C2=NC(=C\c3[nH]c(/C=C4/NC(=O)C(C)=C4C=C)c(C)c3CCC(=O)OC)/C(CCC(=O)OC)=C2C)NC1=O [BVMe2, biliverdin dimethylester, reference compound]	≤ 2.5 µM											
phycocyanobilin [PCB, reference compound]		≥ 40 µM										
R5-2: evolved APCα FP, SEQ ID NO: 6, with BV (protein, biliverdin chromophore; smRUFP Variant Polypeptide) MKTCEQRVKIATLLSENEKKIVDKASQDLWRRRPDFIAPGGIAFSQRERALCLRDHRWYLHLITFCLLAGDKDPIESIGLIGIREMYNSLGVPVPGMMESIRCLKEASLSLLDEEDAKETAPYFDYIIKAMS			71,000 M^−1cm^−1	5.3%	~49 nm	12%	696 nm	671 nm	71,000 M^−1 cm^−1	5.3%		
R6-6: evolved APCα FP, SEQ ID NO: 7, with BV (protein, biliverdin chromophore; smRUFP Variant Polypeptide) MKTCEQRVKIATLLSENEKKIVDKASQDLWRRRPDLIAPGGIAFSQRERALCLRDYGWYLHLITFCLLAGDKGPIESIGLIGIREMYNSLGVPVPGMMESIRCLKEASLSLLDEEDAKETAPYFDYIIKAMS			190,000 M^−1cm^−1	9.6%		56%	676 nm	648 nm	190,000 M^−1 cm^−1	9.6%		
TeAPCα: Trichodesmium erythraeum allophycocyanin α-subunit, nonfluorescent parent protein, SEQ ID NO: 1 (protein, smRUFP Variant Polypeptide) MKTGEQRVKIATLLSENEKKIVDKASQDLWRRRPDFIAPGGNAFGQRERALCLRDYGWYLRLITYGLLAGDKDPIESIGLIGVREMYNSLGVPVPGMVESIRCLKEASLSLLDEEDAKETAPYFDYIIQAMS											showed no fluorescence	
R2-1 + PCB: evolved APCα FP, SEQ ID NO: 3, with PCB (protein, phycocyanobilin chromophore; smRUFP Variant Polypeptide) MKTGEQRVKIATLLSENEKKIVDKASQDLWRRRPDFIAPGGIAFGQRERALCLRDYGWYLRLITFCLLAGDKDPIESIGLIGVREMYNSLGVPVPGMVESIRCLKEASLSLLDEEDAKETAPYFDYIIQAMS			65,000 M^−1cm^−1	7.2%		14%	648 nm	626 nm	65,000 M^−1 cm^−1	7.2%	lacked fluorescence with BV	27 fold

From patent US10501502B2, “Allophycocyanin alpha-subunit evolved labeling proteins (smURFPs)” (The Regents of the University of California, priority 2016, dated 2019)
